This note sets out measurements from patent US20240366775A1 (PEPTIDREAM, published 2024).

For the assay, the target named is T1, recombinant hTfR described in Example 2 of WO2018/124121, random biotinylated (human, UniProt P02786 89-760, randomly biotinylated with NHS-PEG4-Biotin).
T1 construct: held on a streptavidin plate for ELISA; also called human TfR
The assay can be described thus: ELISA, target on streptavidin plate, sample at 100 nM, anti-human IgG-HRP.

T1 sequence (P02786 89-760 limits assumed): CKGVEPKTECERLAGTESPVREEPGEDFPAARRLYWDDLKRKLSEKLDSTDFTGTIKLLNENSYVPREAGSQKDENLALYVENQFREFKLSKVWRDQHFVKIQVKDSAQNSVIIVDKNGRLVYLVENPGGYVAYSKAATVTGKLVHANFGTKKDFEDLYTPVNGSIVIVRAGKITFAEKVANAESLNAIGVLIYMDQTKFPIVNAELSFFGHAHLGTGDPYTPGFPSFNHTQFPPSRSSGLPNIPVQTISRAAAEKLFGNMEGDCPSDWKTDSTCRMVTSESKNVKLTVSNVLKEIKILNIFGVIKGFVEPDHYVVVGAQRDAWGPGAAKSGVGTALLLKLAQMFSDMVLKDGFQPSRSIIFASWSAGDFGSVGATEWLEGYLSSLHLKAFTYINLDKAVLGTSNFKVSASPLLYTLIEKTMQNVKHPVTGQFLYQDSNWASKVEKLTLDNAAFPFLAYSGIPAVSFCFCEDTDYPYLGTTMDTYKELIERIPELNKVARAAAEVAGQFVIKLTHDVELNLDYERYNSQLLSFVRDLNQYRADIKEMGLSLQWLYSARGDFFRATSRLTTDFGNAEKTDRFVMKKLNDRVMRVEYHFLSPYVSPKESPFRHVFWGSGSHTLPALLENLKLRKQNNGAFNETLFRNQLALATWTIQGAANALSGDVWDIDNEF

B1: nivolumab (Selleckchem, Cat. No. A2002) (antibody, V domains shown)
VH: QVQLVESGGGVVQPGRSLRLDCKASGITFSNSGMHWVRQAPGKGLEWVAVIWYDGSKRYYADSVKGRFTISRDNSKNTLFLQMNSLRAEDTAVYYCATNDDYWGQGTLVTVSS
VL: EIVLTQSPATLSLSPGERATLSCRASQSVSSYLAWYQQKPGQAPRLLIYDASNRATGIPARFSGSGSGTDFTLTISSLEPEDFAVYYCQQSSNWPRTFGQGTKVEIK
Regarding B1, the “Abs450 nm at 100 nM” value was found to be 0.049 Abs450 nm.

B2: ipilimumab (Selleck Biotech Co., Ltd., Cat. No. A2001) (antibody, V domains shown)
VH: QVQLVESGGGVVQPGRSLRLSCAASGFTFSSYTMHWVRQAPGKGLEWVTFISYDGNNKYYADSVKGRFTISRDNSKNTLYLQMNSLRAEDTAIYYCARTGWLGPFDYWGQGTLVTVSS
VL: not shown
B2: the “Abs450 nm at 100 nM” value amounted to 0.0435 Abs450 nm.

B3: pembrolizumab (Selleck Biotech Co., Ltd., Cat. No. A2005) (antibody, V domains shown)
VH: QVQLVQSGVEVKKPGASVKVSCKASGYTFTNYYMYWVRQAPGQGLEWMGGINPSNGGTNFNEKFKNRVTLTTDSSTTTAYMELKSLQFDDTAVYYCARRDYRFDMGFDYWGQGTTVTVSS
VL: EIVLTQSPATLSLSPGERATLSCRASKGVSTSGYSYLHWYQQKPGQAPRLLIYLASYLESGVPARFSGSGSGTDFTLTISSLEPEDFAVYYCQHSRDLPLTFGGGTKVEIKR
On to B3, for which the “Abs450 nm at 100 nM” value stood at 0.041 Abs450 nm.
